Assay results taken from the supplement of paper PMC9170038.

Test system: MS2 coat protein
Assay: apparent KD of MS2 coat protein; designed switch direction (-1 OFF switch, 1 ON switch): -1; higher = weaker reporter binding
Method in brief: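 Each step of the titration lasted 0.8–1.5 h at the lowest concentration and 10–20 min at the highest. The protein, SNAP-549-labelled MS2 coat protein, went from 0.7 or 1.5 nM doubling to 3 µM over RNA switches transcribed on Illumina chips by stalled E. coli RNA polymerase. Normalised cluster fluorescence was curve-fitted, and the per-design median over clusters is given as apparent KD.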

[1] = input ligand: microRNA oligo, concentration not stated
[2] = Eterna round: R95, input ligand: FMN 200 uM
[3] = Eterna round: R95, input ligand: microRNA oligo, concentration not stated
[4] = Eterna round: R95, input ligand: none

In the case of “UAUUAGCAAGCGAAAUCCCACAUGAGGAUCACCCAUGUAAAUAAAAGCUCCAGAAUUACUGGAGCAGCUCGUCUUAU [Winner reversed engineered 18] (Eterna round: R97, puzzle: Sensor, turn-off variant 1)”, the “apparent KD of MS2 coat protein” value (input ligand: FMN 200 uM) is reported as 29.8 nM and the “apparent KD of MS2 coat protein” value (input ligand: none) is reported as 24.5 nM.

“UAUUAGCAAGCGAGAUCCCACAUGAGGAUCACCCAUGUAGCAUCCAGAAUUACUGGGUGCAAAAGCUCGUCUUAUUA [Winner reversed engineered 4] (Eterna round: R97, puzzle: Sensor, turn-off variant 1)” was tested, and the “apparent KD of MS2 coat protein” value (input ligand: FMN 200 uM) was 25.4 nM and the “apparent KD of MS2 coat protein” value (input ligand: none) was 26.1 nM.

In the case of “UAUUAGCAAGUAAGAUCCCACAUGAGGAUCACCCAUGUGCUCGUCUUAUAAGGUACUGUGACGAAAGUCACGGUACC [Sensor 3, v1 - 88] (Eterna round: R96, puzzle: Sensor v3, turn-off variant 1)”, the “apparent KD of MS2 coat protein” value (input ligand: FMN 200 uM) is reported as 16.7 nM, the “apparent KD of MS2 coat protein” value [1] is reported as 313 nM and the “apparent KD of MS2 coat protein” value (input ligand: none) is reported as 18.1 nM.

With “UAUUAGCAAGUAAGAUCCCACAUGAGGAUCACCCAUGUGCUCGUCUUAUAAGGUACUGUGACGAAAGUCACGGUACC [Sensor 3, v1 - 88] (puzzle: Sensor v3, turn-off variant 1)” the “apparent KD of MS2 coat protein” value [2] was 12.6 nM, the “apparent KD of MS2 coat protein” value [3] was 1040 nM and the “apparent KD of MS2 coat protein” value [4] was 16.5 nM.

With “UAUUAGCAAGUAAGAUCCCACAUGAGGAUCACCCAUGUGCUCGUCUUAUAAGGUACUGUGACGAAAGUCACGGUACC [Sensor 3, v1 - 95 v1] (Eterna round: R97, puzzle: Sensor, turn-off variant 1)” the “apparent KD of MS2 coat protein” value (input ligand: FMN 200 uM) was 18.3 nM and the “apparent KD of MS2 coat protein” value (input ligand: none) was 19.2 nM.

With “UAUUAGCAAGUGAGAUCCCACAUGAGGAUCACCCAUGUGCUCGUCUUAUAAGGUACUGUGACGAGAGUCACGGUACC [Mat - Sensor, turn-off var - Eli Mod - D2] (Eterna round: R97, puzzle: Sensor, turn-off variant 1)” the “apparent KD of MS2 coat protein” value (input ligand: FMN 200 uM) was 46.1 nM and the “apparent KD of MS2 coat protein” value (input ligand: none) was 44.7 nM.

“UAUUAGCAAGUGAGGUCCCACAUGAGGAUCACCCAUGUGCUCGUCUUAUAAGGUACUGUGACGAAAGUCACGGUACC [Sensor 3, v1 - 95 v4] (Eterna round: R97, puzzle: Sensor, turn-off variant 1)” was tested, and the “apparent KD of MS2 coat protein” value (input ligand: FMN 200 uM) was 48.7 nM and the “apparent KD of MS2 coat protein” value (input ligand: none) was 40.8 nM.

For “UAUUCUAGAUAGGAUAUACUUUUUUUUUUUUUCGUAGAAGGAUCUACAUGAGGAUCACCCAUGUUAUCAGCAGU [JR_E6_Sub011] (puzzle: Exclusion 6)”, the “apparent KD of MS2 coat protein” value [2] was 27.5 nM, the “apparent KD of MS2 coat protein” value [3] was 30.2 nM and the “apparent KD of MS2 coat protein” value [4] was 22.4 nM.

In the case of “UAUUGCAAGCGAAGAUCCCACAUGAGGAUCACCCAUGUGCUCGUCUUAUAAGGUACUGUGACGAUAGUCACGGUACC [Mat - Sensor, turn-off var - Eli Mod - D76] (Eterna round: R97, puzzle: Sensor, turn-off variant 1)”, the “apparent KD of MS2 coat protein” value (input ligand: FMN 200 uM) is reported as 34 nM and the “apparent KD of MS2 coat protein” value (input ligand: none) is reported as 30.6 nM.

For “UAUUGCAAGUGAGGAUAUGACAUGAGGAUCACCCAUGUAAAGGGAGUUGGCUAUAUAGCAAGAUUUCAGAAGGCACUACUGUAU [JR_ExcNG2_Sub006] (Eterna round: R96, puzzle: Exclusion NG 2)”, the “apparent KD of MS2 coat protein” value (input ligand: FMN 200 uM) was 133 nM, the “apparent KD of MS2 coat protein” value [1] was 32.6 nM and the “apparent KD of MS2 coat protein” value (input ligand: none) was 56.3 nM.

“UAUUUACAUGAGGAUCACCCAUGUCAGGAUAUGCGUCUAUCGUCGAAAGACGAUAGCCGCAGAAGGGACAAUAU [LRO-Excl01-21 mod derived from EliFisker 4.24] (Eterna round: R97, puzzle: Exclusion 1)” was tested, and the “apparent KD of MS2 coat protein” value (input ligand: FMN 200 uM) was 87.3 nM and the “apparent KD of MS2 coat protein” value (input ligand: none) was 58.1 nM.

In the case of “UAUUUACAUGAGGAUCACCCAUGUUAGGAUAUGUUUCUAUCGUCGAAAGAUGAUAUUUGCAGAAGGGACAAUAU [LRO-Excl01-28 mod derived from EliFisker 4.24] (Eterna round: R97, puzzle: Exclusion 1)”, the “apparent KD of MS2 coat protein” value (input ligand: FMN 200 uM) is reported as 24 nM and the “apparent KD of MS2 coat protein” value (input ligand: none) is reported as 24.3 nM.

For “UAUUUAGCAAGCAGAUCCCACAUGAGGAUCACCCAUGUUCUCUGAACGUACAGAAUUACUGUACGAGCUCGUCUUAU [Winner reversed engineered 30] (Eterna round: R97, puzzle: Sensor, turn-off variant 1)”, the “apparent KD of MS2 coat protein” value (input ligand: FMN 200 uM) was 352 nM and the “apparent KD of MS2 coat protein” value (input ligand: none) was 352 nM.

In the case of “UCAAGCUUUAAGCGUGUGAACAUGAGGAUCACCCAUGUAUUUUAGGUAAUAAGUUCAAUUAUGUAUUCUCGUCUUAU [JR_SWV3TOV1_Sub095] (Eterna round: R96, puzzle: Sensor v3, turn-off variant 1)”, the “apparent KD of MS2 coat protein” value (input ligand: FMN 200 uM) is reported as 61.5 nM, the “apparent KD of MS2 coat protein” value [1] is reported as 45.4 nM and the “apparent KD of MS2 coat protein” value (input ligand: none) is reported as 65.4 nM.

“UCAAGCUUUAAGCGUGUGAACAUGAGGAUCACCCAUGUAUUUUAGGUAAUAAGUUCAAUUAUGUAUUCUCGUCUUAU [JR_SWV3TOV1_Sub095] (puzzle: Sensor v3, turn-off variant 1)” was tested, and the “apparent KD of MS2 coat protein” value [2] was 42.4 nM, the “apparent KD of MS2 coat protein” value [3] was 37.4 nM and the “apparent KD of MS2 coat protein” value [4] was 45.6 nM.

“UCAAGUAUGUAGGAUAUGAUGUGAUUGUACAUAUCAGAAGGACGUACAUGAGGAUCACCCAUGUAACUUGCAUG [Exclusion 6 - B - 12:b] (puzzle: Exclusion 6)” was tested, and the “apparent KD of MS2 coat protein” value [2] was 43.1 nM, the “apparent KD of MS2 coat protein” value [3] was 144 nM and the “apparent KD of MS2 coat protein” value [4] was 144 nM.

In the case of “UCACCGCAAGGAUAUACUUGCGGUGAUGUUCGAAAUCUUCUACUUGAGGAUCACCCAAGUAGAAGGUGCGGUGA [jl-ex2.4.66 ViennaUCT mod] (Eterna round: R97, puzzle: Exclusion 2)”, the “apparent KD of MS2 coat protein” value (input ligand: FMN 200 uM) is reported as 14.3 nM and the “apparent KD of MS2 coat protein” value (input ligand: none) is reported as 12.8 nM.

For “UCACGGGACUAAGGAUAUACAUGAACUAUUAUUGUAGAAGGUAGAAUGUUAGCUUAUACACUAAACAUGAGGAUCACCCAUGUA [JR_ExcNG1_Sub095] (Eterna round: R96, puzzle: Exclusion NG 1)”, the “apparent KD of MS2 coat protein” value [1] was 26.9 nM.

With “UCACGGGACUGAGGAUAUACAUCAACAAUGGUUGUAGAAGGCAGAAGGUUGAAUCAUAUACUAAACAUGAGGAUCACCCAUGUU [JR_ExcNG1_Sub031] (Eterna round: R96, puzzle: Exclusion NG 1)” the “apparent KD of MS2 coat protein” value (input ligand: FMN 200 uM) was 16.4 nM, the “apparent KD of MS2 coat protein” value [1] was 16.6 nM and the “apparent KD of MS2 coat protein” value (input ligand: none) was 24.1 nM.

With “UCACGGGACUGAGGAUAUACAUGAACCAUUUUUGUAGAAGGCAGAAUGUUUGAUCAUACACUAAACAUGAGGAUCACCCAUGUU [JR_ExcNG1_Sub026] (Eterna round: R96, puzzle: Exclusion NG 1)” the “apparent KD of MS2 coat protein” value (input ligand: FMN 200 uM) was 16 nM, the “apparent KD of MS2 coat protein” value [1] was 16.3 nM and the “apparent KD of MS2 coat protein” value (input ligand: none) was 20.1 nM.

“UCACGGGAUUGAGGAUAUAUAUAAAUUUAUACAAUAGAAGGCAAAUUUUUAGUUUUUUCACUUUACAUGAGGAUCACCCAUGUU [JR_ExcBG1_Sub083] (Eterna round: R96, puzzle: Exclusion NG 1)” was tested, and the “apparent KD of MS2 coat protein” value [1] was 20.1 nM.

“UCACUACCGCAAGGAUAUGUUGUCUGACACGCUGCGUGACAUGAGGAUCACCCAUGUGCUAGUUCGCAGAAGGUGCGGAAUGUG [Eternabot solution 34] (Eterna round: R96, puzzle: Exclusion NG 2)” was tested, and the “apparent KD of MS2 coat protein” value (input ligand: FMN 200 uM) was 63.2 nM, the “apparent KD of MS2 coat protein” value [1] was 9.98 nM and the “apparent KD of MS2 coat protein” value (input ligand: none) was 17.1 nM.

“UCAGGUCGGUAGGAUAUCGACGGGAAAAUCCCACGAGAAGGACUGACAUGAGGAUCACCCAUGUGAGCGUAACC [EX6 B.11] (Eterna round: R97, puzzle: Exclusion 6)” was tested, and the “apparent KD of MS2 coat protein” value (input ligand: FMN 200 uM) was 149 nM and the “apparent KD of MS2 coat protein” value (input ligand: none) was 202 nM.

In the case of “UCAUACGGUGAGGAUAUCUCCACUAAAGUGUGAAGAGAAGGCGCUACAUGAGGAUCACCCAUGUUUAUGGGCAG [Ex-6 Malc#14] (puzzle: Exclusion 6)”, the “apparent KD of MS2 coat protein” value [2] is reported as 27 nM, the “apparent KD of MS2 coat protein” value [3] is reported as 56.5 nM and the “apparent KD of MS2 coat protein” value [4] is reported as 116 nM.

With “UCAUGGGAGGCAGCUGCCCACAUGAGGAUCACCCAUGUUUUAGACAAACGGGUACAAGCUUUUAAUGCUCUUCUUUG [Eternabot (L2) Solution 49] (Eterna round: R97, puzzle: Sensor, turn-off variant 1)” the “apparent KD of MS2 coat protein” value (input ligand: FMN 200 uM) was 587 nM and the “apparent KD of MS2 coat protein” value (input ligand: none) was 248 nM.

“UCAUGUUAGCAGGAUAUGCUAUUUAUUUUUUAUGCAGAAGGGCUUACAUGAGGAUCACCCAUGUAUUAAGUUUU [JR_E6_Sub074] (puzzle: Exclusion 6)” was tested, and the “apparent KD of MS2 coat protein” value [3] was 115 nM.

In the case of “UCAUGUUAGCAGGAUAUGCUAUUUAUUUUUUAUGCAGAAGGGCUUACAUGAGGAUCACCCAUGUGUUAGGUUUU [JR_E6_Sub073] (Eterna round: R96, puzzle: Exclusion 6)”, the “apparent KD of MS2 coat protein” value (input ligand: FMN 200 uM) is reported as 34.8 nM, the “apparent KD of MS2 coat protein” value [1] is reported as 41.5 nM and the “apparent KD of MS2 coat protein” value (input ligand: none) is reported as 70.6 nM.

In the case of “UCAUGUUAGCAGGAUAUGCUAUUUAUUUUUUAUGCAGAAGGGCUUACAUGAGGAUCACCCAUGUGUUAGGUUUU [JR_E6_Sub073] (puzzle: Exclusion 6)”, the “apparent KD of MS2 coat protein” value [3] is reported as 29.7 nM.

With “UCAUGUUUAGAGGAUAUGAUUACUCUAGAGUGAUCAGAAGGCUAGACAUGAGGAUCACCCAUGUCACAACAUGA [Exclusion 6 - B - 16:c] (puzzle: Exclusion 6)” the “apparent KD of MS2 coat protein” value [2] was 73.6 nM, the “apparent KD of MS2 coat protein” value [3] was 44.5 nM and the “apparent KD of MS2 coat protein” value [4] was 128 nM.
